Test results: publication PMC3158780

Biological target: insoluble type I collagen (UniProt P02453)
Assay: co-sedimentation; batch binding to 5 mg insoluble substrate; protein 15 µg/ml in 80 µl buffer A (50 mM Tris-HCl, 10 mM CaCl2, 3 M NaCl, pH 8.0), 0°C, 60 min; supernatant after centrifugation on SDS-PAGE

isolated CTE domain of SptA (CTE*) (domain or fragment)
percent bound: 50%
